Measurements: patent publication US20150071907A1 (published 2015)

Molecular target: T1, human macrophage mannose receptor (MMR) (human, UniProt P22897 19-1456)
T1 sequence (looked up): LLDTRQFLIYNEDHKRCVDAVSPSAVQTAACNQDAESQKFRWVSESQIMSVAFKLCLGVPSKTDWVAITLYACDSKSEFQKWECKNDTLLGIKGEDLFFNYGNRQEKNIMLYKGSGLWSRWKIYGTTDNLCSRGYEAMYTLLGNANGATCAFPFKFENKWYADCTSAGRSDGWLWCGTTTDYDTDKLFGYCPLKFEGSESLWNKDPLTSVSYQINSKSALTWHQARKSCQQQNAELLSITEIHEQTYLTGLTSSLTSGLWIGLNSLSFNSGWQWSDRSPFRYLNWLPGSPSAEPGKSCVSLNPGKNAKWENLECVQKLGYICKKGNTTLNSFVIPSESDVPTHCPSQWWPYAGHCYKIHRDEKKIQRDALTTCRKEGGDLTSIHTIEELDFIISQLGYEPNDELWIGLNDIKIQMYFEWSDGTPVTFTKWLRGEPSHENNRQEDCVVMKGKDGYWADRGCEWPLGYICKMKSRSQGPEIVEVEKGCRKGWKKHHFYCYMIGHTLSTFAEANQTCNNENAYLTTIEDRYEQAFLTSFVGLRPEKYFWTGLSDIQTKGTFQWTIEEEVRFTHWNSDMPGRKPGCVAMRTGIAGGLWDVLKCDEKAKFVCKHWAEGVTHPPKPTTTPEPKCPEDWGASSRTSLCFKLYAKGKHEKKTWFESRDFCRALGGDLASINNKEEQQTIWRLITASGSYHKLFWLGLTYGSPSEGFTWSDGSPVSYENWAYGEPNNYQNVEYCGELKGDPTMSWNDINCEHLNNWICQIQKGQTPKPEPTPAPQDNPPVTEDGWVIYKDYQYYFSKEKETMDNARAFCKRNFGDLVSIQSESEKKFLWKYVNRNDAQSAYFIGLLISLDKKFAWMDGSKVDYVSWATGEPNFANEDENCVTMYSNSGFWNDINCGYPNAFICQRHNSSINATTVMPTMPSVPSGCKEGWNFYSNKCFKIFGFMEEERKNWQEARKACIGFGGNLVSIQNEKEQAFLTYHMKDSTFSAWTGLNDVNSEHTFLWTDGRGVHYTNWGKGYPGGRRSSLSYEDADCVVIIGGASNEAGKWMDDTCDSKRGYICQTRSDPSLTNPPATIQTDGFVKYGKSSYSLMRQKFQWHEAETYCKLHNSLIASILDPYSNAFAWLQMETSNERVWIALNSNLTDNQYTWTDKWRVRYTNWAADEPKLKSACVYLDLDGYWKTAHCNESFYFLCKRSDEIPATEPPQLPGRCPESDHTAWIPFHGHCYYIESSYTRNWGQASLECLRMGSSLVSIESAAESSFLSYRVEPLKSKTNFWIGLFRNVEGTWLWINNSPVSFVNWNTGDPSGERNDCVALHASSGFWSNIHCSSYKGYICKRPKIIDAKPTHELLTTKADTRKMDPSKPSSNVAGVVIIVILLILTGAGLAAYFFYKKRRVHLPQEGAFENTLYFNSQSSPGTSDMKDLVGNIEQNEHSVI
Assay: cell-based or functional assay

B1: velaglucerase alfa (enzyme, human, UniProt P04062 40-536, looked up)
chain: ARPCIPKSFGYSSVVCVCNATYCDSFDPPTFPALGTFSRYESTRSGRRMELSMGPIQANHTGTGLLLTLQPEQKFQKVKGFGGAMTDAAALNILALSPPAQNLLLKSYFSEEGIGYNIIRVPMASCDFSIRTYTYADTPDDFQLHNFSLPEEDTKLKIPLIHRALQLAQRPVSLLASPWTSPTWLKTNGAVNGKGSLKGQPGDIYHQTWARYFVKFLDAYAEHKLQFWAVTAENEPSAGLLSGYPFQCLGFTPEHQRDFIARDLGPTLANSTHHNVRLLMLDDQRLLLPHWAKVVLTDPEAAKYVHGIAVHWYLDFLAPAKATLGETHRLFPNTMLFASEACVGSKFWEQSVRLGSWDRGMQYSHSIITNLLYHVVGWTDWNLALNPEGGPNWVRNFVDSPIIVDITKDTFYKQPMFYHLGHFSKFIPEGSQRVGLVASQKNDLDAVALMHPDGSAVVVVLNRSSKDVPLTIKDPAVGFLETISPGYSIHTYLWRRQ
modifications: primarily high-mannose type N-glycans (6-9 mannose units per glycan) at Asn19, Asn59, Asn146, Asn270
- internalization rate in U937 cells relative to imiglucerase (4-MU-glc activity assay): ≤ 2.5 fold
